Data published in publication PMC5951583 (PLoS Pathogens, 2018).
Several values for one entry are separate records, joined by “and”; a condition that tells them apart may be missing. Identical values can stand only once.

Target: HC-fragment of BoNT/DC fused to a C-terminal Streptag (HCDCS; AA 863–1285), wild-type (C. botulinum strain OFD05, UniProt A5JGM8 863-1285)
Assay: SPR
Settings: both partners purified

B1: GST-rSyt-II 1–90 (domain or fragment)
chain: MRNIFKRNQEPIVAPATTTATMPLAPAAPADNSTESTGTGESQEDMFAKLKDKFFNEINKIPLPPWALIAMAVVAGLLLLTCCFCICKKC
notes: also called GST-Syt-II 1–90; Syt-II with its TMD
With B1 the koff was 0.49 s⁻¹ and 0.63 s⁻¹.

B2: GST-rSyt-II 1–61 (domain or fragment)
chain: MRNIFKRNQEPIVAPATTTATMPLAPAAPADNSTESTGTGESQEDMFAKLKDKFFNEINKI
notes: also called GST-Syt-II 1–61; isolated Syt-II
Binder B2 has a Kd of 1.8 µM, a koff of 0.24 s⁻¹ and a kon of 230000 M⁻¹ s⁻¹.
